The target in test [1] is T1, human CD30 (human, UniProt P28908 19-595).
T1 sequence: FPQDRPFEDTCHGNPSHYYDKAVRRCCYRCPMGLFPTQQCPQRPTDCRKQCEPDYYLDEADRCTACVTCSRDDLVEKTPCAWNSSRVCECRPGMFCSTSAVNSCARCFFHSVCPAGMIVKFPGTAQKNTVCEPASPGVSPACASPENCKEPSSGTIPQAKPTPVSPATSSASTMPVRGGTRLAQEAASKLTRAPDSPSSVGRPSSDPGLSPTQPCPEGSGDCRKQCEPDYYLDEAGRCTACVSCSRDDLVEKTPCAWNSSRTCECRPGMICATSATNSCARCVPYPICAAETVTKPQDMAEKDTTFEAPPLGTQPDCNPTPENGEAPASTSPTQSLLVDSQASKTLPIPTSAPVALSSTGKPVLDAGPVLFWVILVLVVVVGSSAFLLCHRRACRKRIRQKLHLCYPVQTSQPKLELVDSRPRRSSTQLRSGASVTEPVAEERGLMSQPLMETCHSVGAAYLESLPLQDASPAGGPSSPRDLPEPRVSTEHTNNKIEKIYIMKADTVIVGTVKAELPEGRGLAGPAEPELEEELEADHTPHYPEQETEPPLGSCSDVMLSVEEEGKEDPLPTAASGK
Kind of test: cell-based or functional assay.

The target of test [2] is T1, human CD30. The test can be described thus: flow cytometry, HDLM-2 cells, experiment N = 1. Background: A flow cytometer gives signals particle by particle.
Test [3] deals with T1, human CD30. The test can be described thus: flow cytometry, Expi293F cells transfected with human CD30. The method, then:
Cells (3×10⁴ cells/well) were incubated in polystyrene 96-well round-bottom plates (Greiner bio-one, cat. no. 650180) with serial dilutions of antibodies (ranging from 0.005 to 10 μg/mL in 3-fold dilution steps) in 100 μL staining buffer at 4° C. for 30 min. Experiments were performed in technical duplicate. After washing twice in staining buffer, cells were incubated in 50 μL secondary antibody at 4° C. for 30 min. As a secondary antibody, R-PE-conjugated goat-anti-human IgG (Jackson ImmunoResearch, UK; cat. no. 109⁻¹¹⁶-098) diluted 1:400 in staining buffer was used. Cells were washed twice in staining buffer, resuspended in 30 μL staining buffer containing 0.4% EDTA and analyzed on an iQue Screener (Intellicyt Corporation, USA). Binding curves were analyzed using non-linear regression (sigmoidal dose-response with variable slope) using GraphPad Prism V9.0.0 software (GraphPad Software, San Diego, CA, USA).

The target in test [4] is T1, human CD30. The test can be described thus: flow cytometry, KI-JK cells, experiment N = 2.
The target of test [5] is T1, human CD30. The test can be described thus: flow cytometry, KI-JK cells (ALCL), range of 3 tests. As to the method: (§1) Cells (3×10⁴ cells/well) were incubated in polystyrene 96-well round-bottom plates (Greiner bio-one, cat. no. 650180) with serial dilutions of antibodies (range 0.0046 to 10 μg/mL in 3-fold dilution steps) in 50 μL staining buffer at 4° C. for 30 min. After washing twice in staining buffer, cells were incubated with 50 μL secondary antibody at 4° C. for 30 min. […] Next, cells were washed twice in staining buffer, resuspended in 100 μL staining buffer supplemented with TO-PRO-3 iodide (Thermo Fisher Scientific; cat. no. T3605; 1:8000 dilution) and analyzed on a FACSCelesta flow cytometer (BD Biosciences, USA). Live cells were gated based on FSC/SSC and absence of TOPRO-3 staining. Binding curves were analyzed by non-linear regression of log-transformed data (sigmoidal dose-response with variable slope, four parameters) using GraphPad Prism V7.02 software (GraphPad Software, San Diego, CA, USA).

The target of test [6] is T1, human CD30. Kind of test: flow cytometry, DEL cells (ALCL), range of 3 tests. The method, then: as §1
For test [7], the target named is T1, human CD30. The test can be described thus: flow cytometry, L-428 cells (HL), average of 2 tests. As to the method:
as §1

Test [8] concerns the target T1, human CD30. Kind of test: flow cytometry, JVM-2 cells (MCL), range of 3 tests. As to the method: as §1
In test [9] the target is T1, human CD30. The test can be described thus: flow cytometry, L-82 cells (ALCL), average of 2 tests. As to the method: as §1
Test [10] deals with T1, human CD30. The test can be described thus: flow cytometry, HH cells (CTCL), average of 3 tests. The method, then:
as §1

Test [11] deals with T1, human CD30. Kind of test: flow cytometry, KM-H2 cells (HL), average of 3 tests. As to the method:
as §1

The EC50 is the concentration needed to bring the measured effect to its halfway point. Read a low EC50 as higher potency in that assay. As usually defined, the EC50 (read off the curve) is the concentration at which the effect is half-maximal. Low readings indicate higher potency in that assay, high ones lower potency in that assay.

B1: bsG1-huCD3-FEALxCD30-MDX060-FEAR (bispecific antibody, human IgG1, kappa, lambda)
heavy 1: not shown
light 1: not shown
heavy 2: QVQLQQWGAGLLKPSETLSLTCAVYGGSFSAYYWSWIRQPPGKGLEWIGDINHGGGTNYNPSLKSRVTISVDTSKNQFSLKLNSVTAADTAVYYCASLTAYWGQGSLVTVSSASTKGPSVFPLAPSSKSTSGGTAALGCLVKDYFPEPVTVSWNSGALTSGVHTFPAVLQSSGLYSLSSVVTVPSSSLGTQTYICNVNHKPSNTKVDKRVEPKSCDKTHTCPPCPAPEFEGGPSVFLFPPKPKDTLMISRTPEVTCVVVAVSHEDPEVKFNWYVDGVEVHNAKTKPREEQYNSTYRVVSVLTVLHQDWLNGKEYKCKVSNKALPAPIEKTISKAKGQPREPQVYTLPPSREEMTKNQVSLTCLVKGFYPSDIAVEWESNGQPENNYKTTPPVLDSDGSFFLYSRLTVDKSRWQQGNVFSCSVMHEALHNHYTQKSLSLSPG
light 2: DIQMTQSPTSLSASVGDRVTITCRASQGISSWLTWYQQKPEKAPKSLIYAASSLQSGVPSRFSGSGSGTDFTLTISSLQPEDFATYYCQQYDSYPITFGQGTRLEIKRTVAAPSVFIFPPSDEQLKSGTASVVCLLNNFYPREAKVQWKVDNALQSGNSQESVTEQDSKDSTYSLSSTLTLSKADYEKHKVYACEVTHQGLSSPVTKSFNRGEC
notes: also called bsG1-huCD3xCD30-MDX060
Consider B1, for which, in the test with human CD30 [1], the “T-cell mediated cytotoxicity of Karpas-299 cells, IC50 average” value stood at 0.033 µg/mL and the “T-cell mediated cytotoxicity of Karpas-299 cells, maximum lysis average” value is 53.7%. A half-maximal response with human CD30 [2] (EC50) required 0.145 µg/mL. The concentration for a half-maximal effect (EC50 (read off the curve)) in the test with human CD30 [3] was ~0.09 µg/mL. The molecule further came in with a concentration giving a half-maximal response (EC50) in the test with human CD30 [4] of 0.0735 µg/mL.

B2: bsG1-huCD3-FEALxCD30-MDX060-FERR (bispecific antibody, human IgG1, kappa, lambda)
heavy 1: not shown
light 1: not shown
heavy 2: QVQLQQWGAGLLKPSETLSLTCAVYGGSFSAYYWSWIRQPPGKGLEWIGDINHGGGTNYNPSLKSRVTISVDTSKNQFSLKLNSVTAADTAVYYCASLTAYWGQGSLVTVSSASTKGPSVFPLAPSSKSTSGGTAALGCLVKDYFPEPVTVSWNSGALTSGVHTFPAVLQSSGLYSLSSVVTVPSSSLGTQTYICNVNHKPSNTKVDKRVEPKSCDKTHTCPPCPAPEFERGPSVFLFPPKPKDTLMISRTPEVTCVVVDVSHEDPEVKFNWYVDGVEVHNAKTKPREEQYNSTYRVVSVLTVLHQDWLNGKEYKCKVSNKALPAPIEKTISKAKGQPREPQVYTLPPSREEMTKNQVSLTCLVKGFYPSDIAVEWESNGQPENNYKTTPPVLDSDGSFFLYSRLTVDKSRWQQGNVFSCSVMHEALHNHYTQKSLSLSPG
light 2: DIQMTQSPTSLSASVGDRVTITCRASQGISSWLTWYQQKPEKAPKSLIYAASSLQSGVPSRFSGSGSGTDFTLTISSLQPEDFATYYCQQYDSYPITFGQGTRLEIKRTVAAPSVFIFPPSDEQLKSGTASVVCLLNNFYPREAKVQWKVDNALQSGNSQESVTEQDSKDSTYSLSSTLTLSKADYEKHKVYACEVTHQGLSSPVTKSFNRGEC
notes: Bispecific IgG1 made by controlled Fab-arm exchange; also called bsIgG1-huCD3-FEALxCD30-MDX060-FERR; bsG1-huCD3×CD30-MDX060
Regarding B2, the EC50 with human CD30 [5] is 0.143 to 0.258 µg/mL; with human CD30 [6] it was 0.143 to 0.267 µg/mL; in the test with human CD30 [7], 0.174 µg/mL; in the test with human CD30 [8], 0.107 to 0.141 µg/mL; in the test with human CD30 [9], 0.2 µg/mL; with human CD30 [10], 0.195 µg/mL. This molecule displayed a 50% effective concentration (EC50) with human CD30 [11] of 0.159 µg/mL. The “T-cell mediated cytotoxicity of Karpas-299 cells, IC50 average” value with human CD30 [1] stood at 0.029 µg/mL. Also, in the test with human CD30 [1], the “T-cell mediated cytotoxicity of Karpas-299 cells, maximum lysis average” value worked out at 52.3%.

Source of the values: patent publication US20260234255A1 (Genmab, published 2026).
